{
  "source": "paper PMC11726454",
  "molecular_target": "TLR4 human recombinant protein (HY-P73586, MCE) (human) (UniProt O00206)",
  "sequence (O00206 24-631, one chain of several)": "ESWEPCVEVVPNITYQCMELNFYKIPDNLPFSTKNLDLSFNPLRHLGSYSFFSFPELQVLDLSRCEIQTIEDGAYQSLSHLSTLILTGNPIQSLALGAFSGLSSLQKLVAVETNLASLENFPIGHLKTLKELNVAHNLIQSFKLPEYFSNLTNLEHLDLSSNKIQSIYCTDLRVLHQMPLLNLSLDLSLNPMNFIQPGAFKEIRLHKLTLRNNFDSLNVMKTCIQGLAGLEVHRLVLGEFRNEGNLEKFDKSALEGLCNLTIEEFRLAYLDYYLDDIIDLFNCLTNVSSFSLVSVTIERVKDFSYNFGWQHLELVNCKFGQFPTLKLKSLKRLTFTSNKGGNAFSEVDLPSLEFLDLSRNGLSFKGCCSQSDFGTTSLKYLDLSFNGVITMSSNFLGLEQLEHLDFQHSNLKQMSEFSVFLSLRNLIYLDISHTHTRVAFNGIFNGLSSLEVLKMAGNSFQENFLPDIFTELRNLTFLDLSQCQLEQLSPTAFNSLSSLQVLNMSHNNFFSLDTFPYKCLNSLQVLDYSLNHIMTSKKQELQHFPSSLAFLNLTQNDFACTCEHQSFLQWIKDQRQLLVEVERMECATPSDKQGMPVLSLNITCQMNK",
  "assay": "SPR",
  "data": [
    {"substance": "PBP1B without the GST tag, non-transmembrane domain (domain or fragment)", "values": [
      {"measurement": "Kd", "value": 0.269, "unit": "nM"}
    ]}
  ]
}
